Data reported in the supplement of paper PMC7877785.
± gives the uncertainty stated by the source.

Experiment: self-splicing fitness, log relative to wild type (ln ratio); higher = more splicing; Tetrahymena group I intron in knt gene, E. coli kanamycin selection, DiMSum; sequences stand for … in CUCUCU…GGAGGGAAAAGUUAUCAGGCAUGCACCUGGUAGCUAGUCUUUAAACCAAUAGAUUGCAUCGGUUUAAAAGGCAAGACCGUCAAAUUGCGGGAAAGGGGUCAACAGCCGUUCAGUACCAAGUCUCAGGGGAAACUUUGAGAUGGCCUUGCAAAGGGUAUGGUAAUAAGCUGACGGACAUGGUCCUAACCACGCAGCCAAGUCCUAAGUCAACAGAUCUUCUGUUGAUAUGGAUGCAGUUCACAGACUAAAUGUCGGUCGGGGAAGAUGUAUUCUUCUCAUAAGAUAUAGUCGGACCUCUCCUUAAUGGGAGCUAGCGGAUGAAGUGAUGCAACACUGGAGCCGCUGGGAACUAAUUUGUAUGCGAAAGUAUAUUGAUUAGUUUUGGAGUACUCGUGGUCG
Summary of the method: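 The eight P1ex-region nucleotides of an intron in the knt kanamycin-resistance gene on pET-22b(+) were all randomised and the library put into E. coli BL21(DE3). Six replicate transformations were grown overnight at 37°C or 30°C on LB agar with or without 25 μg/mL kanamycin, together with 100 μg/mL carbenicillin, 50 μM IPTG and 0.2% rhamnose. Colonies were pooled and amplicon-sequenced on an Illumina HiSeq 2500. Fitness from DiMSum is the error-weighted combination of wild-type-normalised replicate fold changes, kanamycin over none.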

Sequence | self-splicing fitness (ln) (37 °C) | self-splicing fitness (ln) (30 °C)
GAGGAGCAAUAUUACGAGUA | -1.51 ± 0.37 | –
GAGGAGCAAUAUUACGAUAC | -2.05 ± 0.38 | -1.9 ± 0.18
GAGGAGCAAUAUUACGAUGA | -1.42 ± 0.35 | -2.31 ± 0.24
GAGGAGCAAUAUUACGAUGG | -2.44 ± 0.22 | -3.58 ± 0.2
GAGGAGCAAUAUUACGAUGU | -2.69 ± 0.32 | -3.29 ± 0.33
GAGGAGCAAUAUUACGCACU | -1.49 ± 0.36 | –
GAGGAGCAAUAUUACGCGGA | -2.76 ± 0.41 | -3.27 ± 0.4
GAGGAGCAAUAUUACGCGUA | -1.6 ± 0.37 | -2.97 ± 0.27
GAGGAGCAAUAUUACGGCGA | -0.687 ± 0.2 | -1.1 ± 0.23
GAGGAGCAAUAUUACGGCGG | -1.7 ± 0.38 | -2.33 ± 0.2
GAGGAGCAAUAUUACGGGAG | -3.63 ± 0.35 | -4.37 ± 0.29
GAGGAGCAAUAUUACGGGGU | -2.64 ± 0.22 | -4.47 ± 0.34
GAGGAGCAAUAUUACGGUAA | -2.22 ± 0.36 | -3.65 ± 0.37
GAGGAGCAAUAUUACGGUGC | -2.32 ± 0.15 | -3.87 ± 0.28
GAGGAGCAAUAUUACGUAAG | -2.13 ± 0.34 | -3.04 ± 0.27
GAGGAGCAAUAUUACGUAUG | -2.83 ± 0.4 | -3.97 ± 0.47
GAGGAGCAAUAUUACGUGCC | -2.41 ± 0.28 | -3.24 ± 0.26
GAGUAGCAAUAUUACGAAAU | -1.37 ± 0.23 | -2.68 ± 0.21
GAGUAGCAAUAUUACGACGU | 0.524 ± 0.11 | 0.156 ± 0.093
GAGUAGCAAUAUUACGACUA | -0.537 ± 0.13 | 0.106 ± 0.14
GAGUAGCAAUAUUACGAGGA | -1.81 ± 0.4 | –
GAGUAGCAAUAUUACGAGUA | -1.28 ± 0.17 | -1.92 ± 0.16
GAGUAGCAAUAUUACGAUAA | -1.18 ± 0.2 | -2.41 ± 0.25
GAGUAGCAAUAUUACGCACA | -0.0514 ± 0.18 | -0.806 ± 0.14
GAGUAGCAAUAUUACGCCAU | -2.33 ± 0.31 | -2.49 ± 0.19

Sequence | self-splicing fitness (ln) (37 °C) | self-splicing fitness (ln) (30 °C)
GAGUAGCAAUAUUACGCCUA | -0.374 ± 0.11 | -1.21 ± 0.1
GAGUAGCAAUAUUACGCGAA | -0.658 ± 0.37 | –
GAGUAGCAAUAUUACGCUAG | -0.481 ± 0.18 | -2.38 ± 0.18
GAGUAGCAAUAUUACGCUGA | -1.55 ± 0.39 | –
GAGUAGCAAUAUUACGGCAA | -0.547 ± 0.18 | -1.84 ± 0.17
GAGUAGCAAUAUUACGGCAU | 0.37 ± 0.11 | -0.177 ± 0.089
GAGUAGCAAUAUUACGGCUA | -1.37 ± 0.31 | -1.11 ± 0.29
GAGUAGCAAUAUUACGGGAA | -2.14 ± 0.19 | -2.33 ± 0.21
GAGUAGCAAUAUUACGGUGC | 0.00945 ± 0.18 | -1.19 ± 0.15
GAGUAGCAAUAUUACGGUUG | -1.06 ± 0.2 | -2.7 ± 0.2
GAGUAGCAAUAUUACGUGCA | 0.558 ± 0.2 | -1.35 ± 0.14
GAGUAGCAAUAUUACGUGCG | 0.0549 ± 0.13 | -2.61 ± 0.17
GAUAAGCAAUAUUACGAACG | -0.754 ± 0.17 | -1.22 ± 0.14
GAUAAGCAAUAUUACGAAGC | -0.18 ± 0.21 | -2.17 ± 0.28
GAUAAGCAAUAUUACGACAC | 0.0901 ± 0.16 | -0.403 ± 0.12
GAUAAGCAAUAUUACGAGCC | -1.27 ± 0.23 | -1.5 ± 0.17
GAUAAGCAAUAUUACGCACG | -0.4 ± 0.17 | -1.16 ± 0.13
GAUAAGCAAUAUUACGCACU | -0.284 ± 0.2 | -1.21 ± 0.16
GAUAAGCAAUAUUACGCCGA | -1.14 ± 0.22 | -2.01 ± 0.18
GAUAAGCAAUAUUACGCGGC | -1.13 ± 0.2 | -3.27 ± 0.26
GAUAAGCAAUAUUACGCUUC | -3.04 ± 0.29 | –
GAUAAGCAAUAUUACGGAGC | -1.76 ± 0.19 | -3.95 ± 0.29
GAUAAGCAAUAUUACGGGGC | -1.62 ± 0.18 | -2.96 ± 0.25
GAUAAGCAAUAUUACGGGUG | -1.02 ± 0.099 | -1.09 ± 0.081
GAUAAGCAAUAUUACGGUAU | -1.46 ± 0.12 | -2.17 ± 0.1

Sequence | self-splicing fitness (ln) (37 °C) | self-splicing fitness (ln) (30 °C)
GAUAAGCAAUAUUACGUACA | -0.262 ± 0.16 | -0.491 ± 0.15
GAUAAGCAAUAUUACGUAUG | -1.37 ± 0.1 | -1.53 ± 0.11
GAUAAGCAAUAUUACGUGUU | -2.18 ± 0.14 | -2.67 ± 0.17
GAUAAGCAAUAUUACGUUGC | -2.3 ± 0.21 | -3.38 ± 0.15
GAUCAGCAAUAUUACGACGA | 0.262 ± 0.14 | -0.224 ± 0.13
GAUCAGCAAUAUUACGAUGG | 0.121 ± 0.14 | -1.22 ± 0.096
GAUCAGCAAUAUUACGCACG | 0.0829 ± 0.077 | -0.77 ± 0.076
GAUCAGCAAUAUUACGCAUU | -1.05 ± 0.32 | -2.36 ± 0.26
GAUCAGCAAUAUUACGCCAU | -1.33 ± 0.19 | -3.36 ± 0.3
GAUCAGCAAUAUUACGCCCG | -0.447 ± 0.21 | -0.808 ± 0.25
GAUCAGCAAUAUUACGCGCU | -0.35 ± 0.12 | -1.86 ± 0.12
GAUCAGCAAUAUUACGCUUA | 0.0926 ± 0.13 | -0.551 ± 0.12
GAUCAGCAAUAUUACGGAGG | -1.82 ± 0.15 | -3.86 ± 0.24
GAUCAGCAAUAUUACGGCAU | 0.0262 ± 0.092 | -0.0116 ± 0.068
GAUCAGCAAUAUUACGGGAC | -0.976 ± 0.1 | -1.51 ± 0.085
GAUCAGCAAUAUUACGGGGA | -0.776 ± 0.12 | -1.61 ± 0.12
GAUCAGCAAUAUUACGGGGU | -2.32 ± 0.26 | -3.13 ± 0.3
GAUCAGCAAUAUUACGGUGC | -0.734 ± 0.11 | -2.03 ± 0.13
GAUCAGCAAUAUUACGUUGU | -2.78 ± 0.16 | -3.48 ± 0.13
GAUCAGCAAUAUUACGUUUA | 0.0451 ± 0.095 | -0.394 ± 0.084
GAUCAGCAAUAUUACGUUUU | 0.149 ± 0.08 | -0.968 ± 0.058
GAUGAGCAAUAUUACGAACU | -0.239 ± 0.31 | -0.431 ± 0.31
GAUGAGCAAUAUUACGACUC | -0.273 ± 0.24 | -1.68 ± 0.14
GAUGAGCAAUAUUACGAGCU | -2.11 ± 0.24 | -3.65 ± 0.26
GAUGAGCAAUAUUACGAGGU | -1.99 ± 0.33 | -2.66 ± 0.32

Sequence | self-splicing fitness (ln) (37 °C) | self-splicing fitness (ln) (30 °C)
GAUGAGCAAUAUUACGAUGC | -0.41 ± 0.12 | -1.35 ± 0.086
GAUGAGCAAUAUUACGCAAC | -1.85 ± 0.21 | -2.76 ± 0.21
GAUGAGCAAUAUUACGCACC | -1.13 ± 0.31 | -1.94 ± 0.44
GAUGAGCAAUAUUACGCAGU | -2.44 ± 0.33 | -3.61 ± 0.3
GAUGAGCAAUAUUACGCCUU | – | -1.7 ± 0.24
GAUGAGCAAUAUUACGCGCA | -1.58 ± 0.19 | -1.91 ± 0.21
GAUGAGCAAUAUUACGGAUU | -1.68 ± 0.2 | -3.44 ± 0.44
GAUGAGCAAUAUUACGGCCU | -1.98 ± 0.23 | -2.54 ± 0.18
GAUGAGCAAUAUUACGGUAC | -2.2 ± 0.33 | -5.2 ± 0.36
GAUGAGCAAUAUUACGGUGC | -1.53 ± 0.28 | –
GAUGAGCAAUAUUACGUAAC | -1.9 ± 0.3 | -1.63 ± 0.12
GAUGAGCAAUAUUACGUCCU | -1.84 ± 0.49 | –
GAUGAGCAAUAUUACGUCGA | -2.68 ± 0.3 | -3.33 ± 0.35
GAUGAGCAAUAUUACGUGCG | -1.8 ± 0.13 | -3.79 ± 0.17
GAUGAGCAAUAUUACGUGUC | – | -3.53 ± 0.31
GAUGAGCAAUAUUACGUUGU | -1.69 ± 0.3 | –
GAUGAGCAAUAUUACGUUUU | -2.72 ± 0.2 | -3.82 ± 0.22
GAUUAGCAAUAUUACGACAA | -0.154 ± 0.14 | -0.938 ± 0.17
GAUUAGCAAUAUUACGACAG | -1.1 ± 0.23 | -3.57 ± 0.29
GAUUAGCAAUAUUACGAGGA | -2.08 ± 0.31 | -2.13 ± 0.29
GAUUAGCAAUAUUACGAGUA | -0.695 ± 0.13 | -2.63 ± 0.17
GAUUAGCAAUAUUACGAUCG | -0.387 ± 0.12 | -1.06 ± 0.11
GAUUAGCAAUAUUACGAUUA | -0.0882 ± 0.092 | -0.22 ± 0.1
